# Assay results as given in patent US10858688B2, “Observation method using binding and dissociation probe” (KYOTO UNIVERSITY, priority 2015, dated 2020).
# B1: Plectin-1 3777-4684: EGFP fused (N terminus) human Plectin-1 fragment, residues 3777-4684 of sequence number 8 (protein, listed as Homo sapiens)
# chain: YDYVRRRLTAEDLFEARIISLETYNLLREGTRSLREALEAESAWCYLYGTGSVAGVYLPGSRQTLSIYQALKKGLLSAEVARLLLEAQAATGFLLDPVKGERLTVDEAVRKGLVGPELHDRLLSAERAVTGYRDPYTEQTISLFQAMKKELIPTEEALRLLDAQLATGGIVDPRLGFHLPLEVAYQRGYLNKDTHDQLSEPSEVRSYVDPSTDERLSYTQLLRRCRRDDGTGQLLLPLSDARKLTFRGLRKQITMEELVRSQVMDEATALQLREGLTSIEEVTKNLQKFLEGTSCIAGVFVDATKERLSVYQAMKKGIIRPGTAFELLEAQAATGYVIDPIKGLKLTVEEAVRMGIVGPEFKDKLLSAERAVTGYKDPYSGKLISLFQAMKKGLILKDHGIRLLEAQIATGGIIDPEESHRLPVEVAYKRGLFDEEMNEILTDPSDDTKGFFDPNTEENLTYLQLMERCITDPQTGLCLLPLKEKKRERKTSSKSSVRKRRVVIVDPETGKEMSVYEAYRKGLIDHQTYLELSEQECEWEEITISSSDGVVKSMIIDRRSGRQYDIDDAIAKNLIDRSALDQYRAGTLSITEFADMLSGNAGGFRSRSSSVGSSSSYPISPAVSRTQLASWSDPTEETGPVAGILDTETLEKVSITEAMHRNLVDNITGQRLLEAQACTGGIIDPSTGERFPVTDAVNKGLVDKIMVDRINLAQKAFCGFEDPRTKTKMSAAQALKKGWLYYEAGQRFLEVQYLTGGLIEPDTPGRVPLDEALQRGTVDARTAQKLRDVGAYSKYLTCPKTKLKISYKDALDRSMVEEGTGLRLLEAAAQSTKGYYSPYSVSGSGSTAGSRTGSRTGSRAGSRRGSFDATGSGFSMTFSSSSYSSSGYGRRYASGSSASLGGPESAVA
# modifications: N-terminal EGFP fusion
# B2: Plectin-1 4066-4364: EGFP fused (N terminus) human Plectin-1 fragment, residues 4066-4364 of sequence number 8 (protein, listed as Homo sapiens)
# chain: LEGTSCIAGVFVDATKERLSVYQAMKKGIIRPGTAFELLEAQAATGYVIDPIKGLKLTVEEAVRMGIVGPEFKDKLLSAERAVTGYKDPYSGKLISLFQAMKKGLILKDHGIRLLEAQIATGGIIDPEESHRLPVEVAYKRGLFDEEMNEILTDPSDDTKGFFDPNTEENLTYLQLMERCITDPQTGLCLLPLKEKKRERKTSSKSSVRKRRVVIVDPETGKEMSVYEAYRKGLIDHQTYLELSEQECEWEEITISSSDGVVKSMIIDRRSGRQYDIDDAIAKNLIDRSALDQYRAGTL
# modifications: N-terminal EGFP fusion
# B3: Plectin-1 3777-4313: EGFP fused (N terminus) human Plectin-1 fragment, residues 3777-4313 of sequence number 8 (protein, UniProt Q15149 3777-4313, looked up, fragment)
# chain: YDYVRRRLTAEDLFEARIISLETYNLLREGTRSLREALEAESAWCYLYGTGSVAGVYLPGSRQTLSIYQALKKGLLSAEVARLLLEAQAATGFLLDPVKGERLTVDEAVRKGLVGPELHDRLLSAERAVTGYRDPYTEQTISLFQAMKKELIPTEEALRLLDAQLATGGIVDPRLGFHLPLEVAYQRGYLNKDTHDQLSEPSEVRSYVDPSTDERLSYTQLLRRCRRDDGTGQLLLPLSDARKLTFRGLRKQITMEELVRSQVMDEATALQLREGLTSIEEVTKNLQKFLEGTSCIAGVFVDATKERLSVYQAMKKGIIRPGTAFELLEAQAATGYVIDPIKGLKLTVEEAVRMGIVGPEFKDKLLSAERAVTGYKDPYSGKLISLFQAMKKGLILKDHGIRLLEAQIATGGIIDPEESHRLPVEVAYKRGLFDEEMNEILTDPSDDTKGFFDPNTEENLTYLQLMERCITDPQTGLCLLPLKEKKRERKTSSKSSVRKRRVVIVDPETGKEMSVYEAYRKGLIDHQTYLELSEQEC
# modifications: N-terminal EGFP fusion
# B4: Plectin-1 4022-4364: EGFP fused (N terminus) human Plectin-1 fragment, residues 4022-4364 of sequence number 8 (protein, listed as Homo sapiens)
# chain: FRGLRKQITMEELVRSQVMDEATALQLREGLTSIEEVTKNLQKFLEGTSCIAGVFVDATKERLSVYQAMKKGIIRPGTAFELLEAQAATGYVIDPIKGLKLTVEEAVRMGIVGPEFKDKLLSAERAVTGYKDPYSGKLISLFQAMKKGLILKDHGIRLLEAQIATGGIIDPEESHRLPVEVAYKRGLFDEEMNEILTDPSDDTKGFFDPNTEENLTYLQLMERCITDPQTGLCLLPLKEKKRERKTSSKSSVRKRRVVIVDPETGKEMSVYEAYRKGLIDHQTYLELSEQECEWEEITISSSDGVVKSMIIDRRSGRQYDIDDAIAKNLIDRSALDQYRAGTL
# modifications: N-terminal EGFP fusion
# B5: Plectin-1 3777-4364: EGFP fused (N terminus) human Plectin-1 fragment, residues 3777-4364 of sequence number 8 (protein, UniProt Q15149 3777-4364, looked up, fragment)
# chain: YDYVRRRLTAEDLFEARIISLETYNLLREGTRSLREALEAESAWCYLYGTGSVAGVYLPGSRQTLSIYQALKKGLLSAEVARLLLEAQAATGFLLDPVKGERLTVDEAVRKGLVGPELHDRLLSAERAVTGYRDPYTEQTISLFQAMKKELIPTEEALRLLDAQLATGGIVDPRLGFHLPLEVAYQRGYLNKDTHDQLSEPSEVRSYVDPSTDERLSYTQLLRRCRRDDGTGQLLLPLSDARKLTFRGLRKQITMEELVRSQVMDEATALQLREGLTSIEEVTKNLQKFLEGTSCIAGVFVDATKERLSVYQAMKKGIIRPGTAFELLEAQAATGYVIDPIKGLKLTVEEAVRMGIVGPEFKDKLLSAERAVTGYKDPYSGKLISLFQAMKKGLILKDHGIRLLEAQIATGGIIDPEESHRLPVEVAYKRGLFDEEMNEILTDPSDDTKGFFDPNTEENLTYLQLMERCITDPQTGLCLLPLKEKKRERKTSSKSSVRKRRVVIVDPETGKEMSVYEAYRKGLIDHQTYLELSEQECEWEEITISSSDGVVKSMIIDRRSGRQYDIDDAIAKNLIDRSALDQYRAGTL
# modifications: N-terminal EGFP fusion
# Tested on: intermediate filament
# Test: Localization test of probe candidates (integrated SiMS images)
# Type: cell-based, Xenopus laevis
# Design: key: “localization” is positive (P) when above criterion (1) is met
# Details: fixed, permeabilized XTC cell; lysate supernatant of EGFP fused probe; TIRF, 10000 frames
# Protocol: HEK (Human embryonic kidney)-293F cells were transfected with a plasmid encoding a probe candidate protein tagged with FLAG-EGFP or 3×FLAG-EGFP. […] Centrifugal separation was performed on the lysate and the supernatant liquid was collected. In order to perform screening for a probe for IRIS, the binding capacity of a probe candidate in the supernatant liquid with respect to the structure of an XCT cell that was fixed with paraformaldehyde (PFA) and that received a permeabilization process was tested. The appearance and disappearance of single molecule speckles (Single-molecule speckles, SiMS) in the structure was tested. Screening was performed for a probe for IRIS in accordance with the following criteria:
# (1) It is possible to confirm a distribution of target substances in the structure in an image resulting from adding SiMS images;
# The localization test of the above (1), whose result is shown in table 1, was performed in the following procedures. First, the supernatant liquid of lysate of a cell that expressed each probe candidate was brought into contact with an XCT cell that was fixed on a coverglass and that received a permeabilization process. […] The obtained speckle images of 10000 frames were integrated so as to confirm whether or not a distribution of target substances in the cell (microtubule, intermediate filament, focal adhesion or actin filament) was able to be confirmed. When a distribution of a target substances was able to be confirmed, the result of the localization test was treated as P (positive).
row,Molecule,LOCALIZATION
1,B1,P
2,B2,P
3,B3,P
4,B4,P
5,B5,P

# Tested on: intermediate filament
# Test: Washability test of probe candidates
# Type: cell-based, Xenopus laevis
# Design: key: “washability” is positive (P) when above criterion (2) is met
# Details: speckles equal to or less than about 10% after switching imaging solution 10 to 20 times
# Protocol: (2) It is possible to wash and remove a probe after SiMS imaging (imaging step);
# The […] of the above (2), whose result is shown in table 1, was performed in the following procedures. […] This switching of imaging solution was conducted slowly so that the observation position would not shift. Next, an imaging solution not containing a probe and not containing the active oxygen-scavenging mix was switched 10 to 20 times. After the switching, for confirmation, for an XCT cell sample in the observation chamber, speckle images of 10 frames were picked up under a similar condition to that of the localization test described in the previous paragraph, and when the number of speckles confirmed in the speckle images (i.e., the number of probes that had bound) became sufficiently smaller (equal to or less than about 10%) than the number of the speckles in the speckle images before the washing operation, washing was determined to be possible and the result was treated as P (positive).
row,Molecule,WASHABILITY
1,B1,P
2,B2,P
3,B3,P
4,B4,P
5,B5,P

# Tested on: intermediate filament
# Test: Measurement of binding half-life of probe-target complex
# Design: species or system Xenopus laevis
# Details: fixed XTC cell, single exponential fit
# Description: A probe and a target substance have the following binding characteristics. […] The above half-life herein is preferably a half-life of a probe-target complex formed by binding between a probe and a target substance in a case when a medium containing a probe and a sample containing a target substance that is to be observed are brought into contact under a condition for performing an imaging step. […] Measurement procedures for the half-life are as below. […] Ndissociation is a cumulative relative frequency of a probe that dissociated. A cumulative relative frequency is a ratio of the speckles that disappeared within a given period of time to the total number of measured speckles (i.e. probes) (i.e. probes that dissociated within a given period of time), and represents the total number as 1. Then, by fitting the above complementary cumulative relative frequency function with an exponent function, that half-life is calculated.
# The measurement of binding half-life, whose result is shown in table 1, was performed in the following procedures. Speckle images of 10000 frames picked up in the localization test were used in order to measure a period of time between the appearance of a probe that has bound to a target in a speckle image and disappearance through dissociation in a semi-manual mode by using Speckle TrackerJ, an ImageJ plug-in. In case of for example picking up of images with an exposure time of 50 ms and at a frame rate of 20 Hz, it is assumed that a period of time between the appearance and disappearance of a speckle that is observed in only one of consecutive frames is 50 ms and a period of time between the appearance and disappearance of a speckle observed in only two consecutive frames is 100 ms. […] Ndissociation is a cumulative relative frequency of probes that dissociated. Then, by fitting the complementary cumulative relative frequency function with an exponent function, the half-life was calculated. However, the binding half-life with respect to an actin filament of Atto488-Lifeact was measured by using a method that is described in detail in the section for FIG. 9 in the Brief Description of the Drawings.
row,HALF-LIFE,Molecule
1,0.457 s,B1
2,7.7 s,B2
3,0.052 s,B3
4,0.103 s,B4
5,0.059 s,B5

# Tested on: intermediate filament
# Test: IRIS image test (reconstruction image)
# Type: cell-based, Xenopus laevis
# Design: key: “IRIS image” is positive (P) when above criterion (3) is met
# Details: reconstruction from 10000 frames with DAOSTORM
# Protocol: […] It is possible to reconstruct an image of a target substance by integrating the central positions of the respective speckles. The IRIS image test of the above (3) whose result is described in table 1 was performed in the following procedures. By using all the speckle images of 10000 frames picked up in the localization test, the central point of a probe that has bound to a target in each frame of the speckle images was determined with nanometer accuracy by using DAOSTORM. By adding a large number of pieces of central point information in the fluorescence images of 10000 frames, a reconstruction image (observation image) was generated. Whether or not a distribution of a target molecule was able to be observed in that reconstruction image was determined, and when a distribution of a target molecule was observed, the result was treated as P (positive).
row,Molecule,IRIS IMAGE
1,B1,P
2,B3,P
3,B4,P
4,B5,P
